Drawing on US20240150447A1 (CEPHALON, published 2024), this text covers Kd, koff and kon for 9 molecules.

As a reminder, the Kd is the free concentration of one partner at which half of the binding sites on the other are occupied at equilibrium, for simple one-to-one binding. As usually defined, the koff is the rate constant with which the complex falls apart. As a reminder, the kon is the second-order rate constant of association.

Test [1] concerns the target T1, human FcRn protein (human, UniProt P55899 24-297, limits assumed).
T1 construct: source and construct not described; also called hFcRn; FCGRT
The experiment in a line: SPR, Ab on Protein L chip, hFcRn in flow, pH 6.0. The procedure:
(§1) The interaction between human immunoglobulin proteins and FcRn is known to be affected by the pH of their environment solution. To test whether this pH-dependent interaction correlates with the quantity of antibody variants in the brain parenchyma after in vivo administration, the affinity of certain variants towards FcRn were screened at pH 6.0 and pH 7.4 on a Biacore T200 system (GE Healthcare). All experiments were conducted at 25′ C. Antibodies were expressed and purified using the Expi293 expression system as described in Example 1. Cells were transfected with a heavy chain comprising the variable region of the 04 antibody used in Example 2 [SEQ ID NO: 1] fused to a heavy chain region bearing the indicated substitution in Table 11 and a light chain from Ab6 [SEQ TD NO: 24]. Although the CH sequences listed in Table 11 include the terminal lysine (K447), this terminal lysine was truncated during the cloning process for each of these variants for the purposes of this experiment. Antibody proteins were captured at a flow rate of 10 μL/min on a Protein L chip to a surface density of approximately 100 RU. Experiments conducted at pH 7.4 were conducted in PBST (1.06 mMKH2PO4, 155.17 mM7NaCl, 2.97 mM 4Na2PO4-7H2O, and 0.005 Tween-20). […] The antibody-FcRn complex was allowed to dissociate for 20 s before the chip was regenerated with 10 mM glycine pH 1.7. On-rates (ka) and off-rates (kd) were estimated by the best fit to a one-to-one Langmuir binding model by simultaneous fitting of the association and dissociation sensograms. The dissociation constant (KD) for FcRn binding was then calculated as the ratio of the off rate to the on rate (kd/ka).
A general note: SPR reads the build-up and loss of mass on a sensor chip optically.

For test [2], the target named is T1, human FcRn protein. The test is described as follows: SPR, Ab on Protein L chip, hFcRn in flow, pH 7.4. The procedure: as §1

T1 sequence (P55899 24-297 limits assumed, chain 1 of 2): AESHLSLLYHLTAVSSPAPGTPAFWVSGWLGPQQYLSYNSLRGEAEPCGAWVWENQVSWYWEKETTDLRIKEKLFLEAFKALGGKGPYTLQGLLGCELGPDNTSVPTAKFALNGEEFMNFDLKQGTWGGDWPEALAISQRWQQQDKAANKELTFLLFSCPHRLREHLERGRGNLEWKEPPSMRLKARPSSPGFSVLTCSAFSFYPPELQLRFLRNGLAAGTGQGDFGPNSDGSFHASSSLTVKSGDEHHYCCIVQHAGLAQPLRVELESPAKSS
T1 sequence (chain, as listed by the source limits assumed, chain 2 of 2): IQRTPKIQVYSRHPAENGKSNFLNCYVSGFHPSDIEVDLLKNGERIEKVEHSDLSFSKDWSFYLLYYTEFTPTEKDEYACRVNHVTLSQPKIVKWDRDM

B1: hIgG1 M252Y/S254T/T256E/N434W, O4 VH with Ab6 light chain (antibody)
heavy: QVQLRQSGPGLVQPSQSLSITCTVSGFSLTSYGVHWFRQSPGKGLEWLGVIWSGGSTDYNAAFISRLSISKDNSKSQVFFKMNSLQANDTAIYYCARNRGRYNYYAMDYWGQGTSVTVSSASTKGPSVFPLAPSSKSTSGGTAALGCLVKDYFPEPVTVSWNSGALTSGVHTFPAVLQSSGLYSLSSVVTVPSSSLGTQTYICNVNHKPSNTKVDKKVEPKSCDKTHTCPPCPAPELLGGPSVFLFPPKPKDTLYITREPEVTCVVVDVSHEDPEVKFNWYVDGVEVHNAKTKPREEQYNSTYRVVSVLTVLHQDWLNGKEYKCKVSNKALPAPIEKTISKAKGQPREPQVYTLPPSRDELTKNQVSLTCLVKGFYPSDIAVEWESNGQPENNYKTTPPVLDSDGSFFLYSKLTVDKSRWQQGNVFSCSVMHEALHWHYTQKSLSLSPG
light: not shown
notes: hIgG1
In the test with human FcRn protein [1], B1 yielded a Kd of 4.38 nM, a koff of 0.00655 s⁻¹ and an on-rate (kon) of 1.49e+06 M⁻¹ s⁻¹.

B2: hIgG1 M252Y/T256A/V308P/N434W, O4 VH with Ab6 light chain (antibody)
heavy: QVQLRQSGPGLVQPSQSLSITCTVSGFSLTSYGVHWFRQSPGKGLEWLGVIWSGGSTDYNAAFISRLSISKDNSKSQVFFKMNSLQANDTAIYYCARNRGRYNYYAMDYWGQGTSVTVSSASTKGPSVFPLAPSSKSTSGGTAALGCLVKDYFPEPVTVSWNSGALTSGVHTFPAVLQSSGLYSLSSVVTVPSSSLGTQTYICNVNHKPSNTKVDKKVEPKSCDKTHTCPPCPAPELLGGPSVFLFPPKPKDTLYISRAPEVTCVVVDVSHEDPEVKFNWYVDGVEVHNAKTKPREEQYNSTYRVVSVLTPLHQDWLNGKEYKCKVSNKALPAPIEKTISKAKGQPREPQVYTLPPSRDELTKNQVSLTCLVKGFYPSDIAVEWESNGQPENNYKTTPPVLDSDGSFFLYSKLTVDKSRWQQGNVFSCSVMHEALHWHYTQKSLSLSPG
light: not shown
notes: hIgG1
B2: in the test with human FcRn protein [2], the Kd is 90.1 nM, the koff was found to be 0.08 s⁻¹ and the kon came out at 893000 M⁻¹ s⁻¹. In addition, in the test with human FcRn protein [1], the Kd was 0.426 nM, the koff is 0.000815 s⁻¹ and the kon stood at 1.91e+06 M⁻¹ s⁻¹.

B3: hIgG1 M252Y/T256M/V308P/N434W, O4 VH with Ab6 light chain (antibody)
heavy: QVQLRQSGPGLVQPSQSLSITCTVSGFSLTSYGVHWFRQSPGKGLEWLGVIWSGGSTDYNAAFISRLSISKDNSKSQVFFKMNSLQANDTAIYYCARNRGRYNYYAMDYWGQGTSVTVSSASTKGPSVFPLAPSSKSTSGGTAALGCLVKDYFPEPVTVSWNSGALTSGVHTFPAVLQSSGLYSLSSVVTVPSSSLGTQTYICNVNHKPSNTKVDKKVEPKSCDKTHTCPPCPAPELLGGPSVFLFPPKPKDTLYISRMPEVTCVVVDVSHEDPEVKFNWYVDGVEVHNAKTKPREEQYNSTYRVVSVLTPLHQDWLNGKEYKCKVSNKALPAPIEKTISKAKGQPREPQVYTLPPSRDELTKNQVSLTCLVKGFYPSDIAVEWESNGQPENNYKTTPPVLDSDGSFFLYSKLTVDKSRWQQGNVFSCSVMHEALHWHYTQKSLSLSPG
light: not shown
notes: hIgG1
In the test with human FcRn protein [2], B3 had an equilibrium dissociation constant (Kd) of 37.2 nM, a dissociation rate constant (koff) of 0.28 s⁻¹ and a kon of 7.62e+06 M⁻¹ s⁻¹. In the test with human FcRn protein [1], this molecule came in with a dissociation constant (Kd) of 0.828 nM, a dissociation rate constant (koff) of 0.00125 s⁻¹ and an association rate constant (kon) of 1.51e+06 M⁻¹ s⁻¹.

B4: hIgG1 M252Y/T256L/V308P/N434W, O4 VH with Ab6 light chain (antibody)
heavy: QVQLRQSGPGLVQPSQSLSITCTVSGFSLTSYGVHWFRQSPGKGLEWLGVIWSGGSTDYNAAFISRLSISKDNSKSQVFFKMNSLQANDTAIYYCARNRGRYNYYAMDYWGQGTSVTVSSASTKGPSVFPLAPSSKSTSGGTAALGCLVKDYFPEPVTVSWNSGALTSGVHTFPAVLQSSGLYSLSSVVTVPSSSLGTQTYICNVNHKPSNTKVDKKVEPKSCDKTHTCPPCPAPELLGGPSVFLFPPKPKDTLYISRLPEVTCVVVDVSHEDPEVKFNWYVDGVEVHNAKTKPREEQYNSTYRVVSVLTPLHQDWLNGKEYKCKVSNKALPAPIEKTISKAKGQPREPQVYTLPPSRDELTKNQVSLTCLVKGFYPSDIAVEWESNGQPENNYKTTPPVLDSDGSFFLYSKLTVDKSRWQQGNVFSCSVMHEALHWHYTQKSLSLSPG
light: not shown
notes: hIgG1
With B4, in the test with human FcRn protein [2], the affinity, expressed as Kd, was 137 nM; the koff turned out to be 0.0868 s⁻¹; the kon stood at 634000 M⁻¹ s⁻¹. In the test with human FcRn protein [1], this molecule showed a Kd of 2.85 nM, a koff of 0.00351 s⁻¹ and a kon of 1.23e+06 M⁻¹ s⁻¹.

B5: hIgG1 M252Y/T256P/V308P/N434W, O4 VH with Ab6 light chain (antibody)
heavy: QVQLRQSGPGLVQPSQSLSITCTVSGFSLTSYGVHWFRQSPGKGLEWLGVIWSGGSTDYNAAFISRLSISKDNSKSQVFFKMNSLQANDTAIYYCARNRGRYNYYAMDYWGQGTSVTVSSASTKGPSVFPLAPSSKSTSGGTAALGCLVKDYFPEPVTVSWNSGALTSGVHTFPAVLQSSGLYSLSSVVTVPSSSLGTQTYICNVNHKPSNTKVDKKVEPKSCDKTHTCPPCPAPELLGGPSVFLFPPKPKDTLYISRPPEVTCVVVDVSHEDPEVKFNWYVDGVEVHNAKTKPREEQYNSTYRVVSVLTPLHQDWLNGKEYKCKVSNKALPAPIEKTISKAKGQPREPQVYTLPPSRDELTKNQVSLTCLVKGFYPSDIAVEWESNGQPENNYKTTPPVLDSDGSFFLYSKLTVDKSRWQQGNVFSCSVMHEALHWHYTQKSLSLSPG
light: not shown
notes: hIgG1
In the test with human FcRn protein [2], B5 displayed an equilibrium dissociation constant (Kd) of 49.8 nM, an off-rate (koff) of 0.02 s⁻¹ and a kon of 442000 M⁻¹ s⁻¹. Besides, in the test with human FcRn protein [1], the Kd came out at 0.0414 nM, the koff amounted to 3.83e-05 s⁻¹ and the on-rate (kon) turned out to be 927000 M⁻¹ s⁻¹.

B6: hIgG1 M252Y/T256R/V308P/N434W, O4 VH with Ab6 light chain (antibody)
heavy: QVQLRQSGPGLVQPSQSLSITCTVSGFSLTSYGVHWFRQSPGKGLEWLGVIWSGGSTDYNAAFISRLSISKDNSKSQVFFKMNSLQANDTAIYYCARNRGRYNYYAMDYWGQGTSVTVSSASTKGPSVFPLAPSSKSTSGGTAALGCLVKDYFPEPVTVSWNSGALTSGVHTFPAVLQSSGLYSLSSVVTVPSSSLGTQTYICNVNHKPSNTKVDKKVEPKSCDKTHTCPPCPAPELLGGPSVFLFPPKPKDTLYISRRPEVTCVVVDVSHEDPEVKFNWYVDGVEVHNAKTKPREEQYNSTYRVVSVLTPLHQDWLNGKEYKCKVSNKALPAPIEKTISKAKGQPREPQVYTLPPSRDELTKNQVSLTCLVKGFYPSDIAVEWESNGQPENNYKTTPPVLDSDGSFFLYSKLTVDKSRWQQGNVFSCSVMHEALHWHYTQKSLSLSPG
light: not shown
notes: hIgG1
Take B6: in the test with human FcRn protein [1], the equilibrium dissociation constant (Kd) came to 0.433 nM, the off-rate (koff) turned out to be 0.001 s⁻¹ and the association rate constant (kon) came out at 2.31e+06 M⁻¹ s⁻¹.

B7: hIgG1 M252Y/T256E/V308P/N434W, O4 VH with Ab6 light chain (antibody)
heavy: QVQLRQSGPGLVQPSQSLSITCTVSGFSLTSYGVHWFRQSPGKGLEWLGVIWSGGSTDYNAAFISRLSISKDNSKSQVFFKMNSLQANDTAIYYCARNRGRYNYYAMDYWGQGTSVTVSSASTKGPSVFPLAPSSKSTSGGTAALGCLVKDYFPEPVTVSWNSGALTSGVHTFPAVLQSSGLYSLSSVVTVPSSSLGTQTYICNVNHKPSNTKVDKKVEPKSCDKTHTCPPCPAPELLGGPSVFLFPPKPKDTLYISREPEVTCVVVDVSHEDPEVKFNWYVDGVEVHNAKTKPREEQYNSTYRVVSVLTPLHQDWLNGKEYKCKVSNKALPAPIEKTISKAKGQPREPQVYTLPPSRDELTKNQVSLTCLVKGFYPSDIAVEWESNGQPENNYKTTPPVLDSDGSFFLYSKLTVDKSRWQQGNVFSCSVMHEALHWHYTQKSLSLSPG
light: not shown
notes: hIgG1
In the test with human FcRn protein [2], B7 came in with a Kd of 70.2 nM, a koff of 0.0341 s⁻¹ and a kon of 486000 M⁻¹ s⁻¹. Further, in the test with human FcRn protein [1], binding was characterised by a dissociation constant (Kd) of 0.744 nM, the off-rate constant (koff) came out at 0.00128 s⁻¹ and the kon is 1.71e+06 M⁻¹ s⁻¹.

B8: hIgG1 M252Y/T256H/V308P/N434W, O4 VH with Ab6 light chain (antibody)
heavy: QVQLRQSGPGLVQPSQSLSITCTVSGFSLTSYGVHWFRQSPGKGLEWLGVIWSGGSTDYNAAFISRLSISKDNSKSQVFFKMNSLQANDTAIYYCARNRGRYNYYAMDYWGQGTSVTVSSASTKGPSVFPLAPSSKSTSGGTAALGCLVKDYFPEPVTVSWNSGALTSGVHTFPAVLQSSGLYSLSSVVTVPSSSLGTQTYICNVNHKPSNTKVDKKVEPKSCDKTHTCPPCPAPELLGGPSVFLFPPKPKDTLYISRHPEVTCVVVDVSHEDPEVKFNWYVDGVEVHNAKTKPREEQYNSTYRVVSVLTPLHQDWLNGKEYKCKVSNKALPAPIEKTISKAKGQPREPQVYTLPPSRDELTKNQVSLTCLVKGFYPSDIAVEWESNGQPENNYKTTPPVLDSDGSFFLYSKLTVDKSRWQQGNVFSCSVMHEALHWHYTQKSLSLSPG
light: not shown
notes: hIgG1
Regarding B8, in the test with human FcRn protein [2], binding was put at a Kd of 103 nM, the off-rate constant (koff) was found to be 0.19 s⁻¹ and the on-rate (kon) came out at 1.82e+06 M⁻¹ s⁻¹. Besides, in the test with human FcRn protein [1], the dissociation constant (Kd) is 2.2 nM, the koff was 0.00228 s⁻¹ and the on-rate constant (kon) amounted to 1.04e+06 M⁻¹ s⁻¹.

B9: hIgG1 M252Y/T256D/V308P/N434W, O4 VH with Ab6 light chain (antibody)
heavy: QVQLRQSGPGLVQPSQSLSITCTVSGFSLTSYGVHWFRQSPGKGLEWLGVIWSGGSTDYNAAFISRLSISKDNSKSQVFFKMNSLQANDTAIYYCARNRGRYNYYAMDYWGQGTSVTVSSASTKGPSVFPLAPSSKSTSGGTAALGCLVKDYFPEPVTVSWNSGALTSGVHTFPAVLQSSGLYSLSSVVTVPSSSLGTQTYICNVNHKPSNTKVDKKVEPKSCDKTHTCPPCPAPELLGGPSVFLFPPKPKDTLYISRDPEVTCVVVDVSHEDPEVKFNWYVDGVEVHNAKTKPREEQYNSTYRVVSVLTPLHQDWLNGKEYKCKVSNKALPAPIEKTISKAKGQPREPQVYTLPPSRDELTKNQVSLTCLVKGFYPSDIAVEWESNGQPENNYKTTPPVLDSDGSFFLYSKLTVDKSRWQQGNVFSCSVMHEALHWHYTQKSLSLSPG
light: not shown
notes: hIgG1
In the test with human FcRn protein [2], B9 had a Kd of 52.1 nM, a koff of 0.0338 s⁻¹ and a kon of 650000 M⁻¹ s⁻¹. In the test with human FcRn protein [1], this molecule came in with an equilibrium dissociation constant (Kd) of 1.19 nM, a koff of 0.00211 s⁻¹ and an on-rate constant (kon) of 1.77e+06 M⁻¹ s⁻¹.
